Two substances from article PMC6255772 can be followed below.

Experiment [1] concerns the target recombinant human IGF-2 (human). Description: SPR; competition with immobilized MEDI-573. Particulars: Fc fusion. In general terms: Surface plasmon resonance follows binding to a sensor surface in real time, without labels.
In the next experiment the target is IGF-TRAP-3.1 (human) (UniProt P08069). Description: SPR; BioRad ProteOn, GLC chip; about 1200 RU IGF-TRAP captured on immobilised goat anti-human Fc antibody; ligands 320-3.95 nM injected in triplicates, 120 s association, 600 s dissociation; PBST, 25 °C; 1:1 binding model.
The next experiment addresses IGF-TRAP-3.3 (human) (UniProt P08069). The experiment is described as above.

With “IGF-TRAP-3.3 (from UniProt P08069 31-736; P08069 741-935; P01857 1-328)”, the IC50 – broadly, the concentration that gives 50% inhibition – in experiment [1] is 6.44 nM.
For the substance human insulin (ligand), the fold lower affinity than for the IGF ligands in the experiment with IGF-TRAP-3.1 (human) and in the experiment with IGF-TRAP-3.3 (human) was 1000 fold throughout.
